The source of these data is article PMC3616739.

The data set deals with GST-LEDGF PWWP (UniProt O75475 1-100). In words: EMSA.
Sequence of GST-LEDGF PWWP (O75475 1-100): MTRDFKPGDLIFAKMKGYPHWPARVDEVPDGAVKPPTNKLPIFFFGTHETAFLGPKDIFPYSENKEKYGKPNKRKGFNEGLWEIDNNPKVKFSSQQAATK

B1: non-specific DNA 40 bp (dsDNA)
DNA 1: CTGCAGAAGCTTGGTGCCGGGGCCGCTCAATTGGTCGTAG
DNA 2: CTACGACCAATTGAGCGGCCCCGGCACCAAGCTTCTGCAG
Consider B1, for which the Kd was about 1500 nM.

B2: SMYD1 DNA 40 bp (dsDNA)
DNA 1: CAGGCTGGTCTTGAACTCCTGACCTCAGATGATCCATGTG
DNA 2: CACATGGATCATCTGAGGTCAGGAGTTCAAGACCAGCCTG
As for B2, the dissociation constant (Kd) is about 1500 nM.

One may read the Kd as a measure of binding affinity in units of concentration.
